B1: 103B2 (antibody, V domains shown)
VH: KPSQSLSLTCSVTGYSITSTYYWNWIRQFPGNKLEWMGYISYDGTNKYNPSLKNRISITRDTSKNRFFLKLNSVTTEDTATYYCAGDDYDRSPWFAYWGQGTLVTVSA
VL: DIVLTQSPASQSASLGESVTITCLASQTIGTWLAWYQQKPGKSPQLLIYAATSLADGVPSRFSGSGSGTKFSFKISSLQAEDFVSYYCQQLYSTPWTFGGGTKLEIKR
notes: Murine hybridoma antibody purified by Protein A; also called murine anti-properdin hybridoma mAb 103B2
B2: P11 (humanized version of E12) (antibody, IgG4, V domains shown)
VH: QVQLQQSGPELVRPGVSVKISCKGSGYTFTDYALHWVKQSHAESLEWIGVISTYYGDASYNQKFKDKATMTVDISSSTAYLELARLTSEDSAIYYCARDGYLDYWGQGTLVTVSS
VL: QSVLTQPPSVSAAPGQKVTISCSGSSSNIGNNYVSWYVQLPGTAPKLLIYDNNKRFSGVPDRFSGSKSGTSATLGITGLQTGDEADYYCGAWDGSLREAVFGGGTKVTVLR
notes: Full-length humanized IgG4 made in CHO-S; also called pZRCIII Hyg E12LC-E12HC
B3: P14 (humanized version of 124F9) (antibody, IgG4, V domains shown)
VH: QVQLQESGPGLVKPSQTLSLTCTVSGYSITSGYYWNWIRQHPGKGLEWIGYISYDGGNKYNPSLKSRVTISRDTSKNQFSLKLSSVTAADTAVYYCARDLDGYESMDYWGQGTSVTVSS
VL: DIVMTQSPLSLSVTPGQPASISCKSSQSLLDINGKTYLNWYLQKPGQSPQLLIYLVSKLDSGVPDRFSGSGSGTDFTLKISRVEAEDVGVYYCWQGTHFPYTFGQGTKVEIKR
notes: Full-length humanized IgG4 made in CHO-S; also called pZRCIII Hyg P14LC-P14HC
B4: P15 (GLS) (humanized version of 103B2 with GLS in constant region) (antibody, human IgG4 S228P)
heavy: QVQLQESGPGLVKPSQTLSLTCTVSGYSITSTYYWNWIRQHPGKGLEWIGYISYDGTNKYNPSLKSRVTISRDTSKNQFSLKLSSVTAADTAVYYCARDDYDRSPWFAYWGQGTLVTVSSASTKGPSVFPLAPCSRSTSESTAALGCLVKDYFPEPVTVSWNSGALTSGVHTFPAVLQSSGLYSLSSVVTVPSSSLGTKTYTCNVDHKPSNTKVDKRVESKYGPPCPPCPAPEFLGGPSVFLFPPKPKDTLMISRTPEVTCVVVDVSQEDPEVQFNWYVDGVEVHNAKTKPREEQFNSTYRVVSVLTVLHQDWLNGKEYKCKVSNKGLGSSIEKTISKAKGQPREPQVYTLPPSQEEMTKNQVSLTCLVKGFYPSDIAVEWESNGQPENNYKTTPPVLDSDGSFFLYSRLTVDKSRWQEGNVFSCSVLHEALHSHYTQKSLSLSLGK
VL: DIQMTQSPSSLSASVGDRVTITCLASQTIGTWLAWYQQKPGKAPKLLIYAATSLADGVPSRFSGSGSGTDFTLTISSLQPEDFATYYCQQLYSTPWTFGGGTKLEIKR
notes: also called pZRCIII Hyg P15LC-P15HC (IgG4 GLS); copies: 2 + 2
B5: P15 (humanized version of 103B2) (antibody, human IgG4 S228P)
heavy: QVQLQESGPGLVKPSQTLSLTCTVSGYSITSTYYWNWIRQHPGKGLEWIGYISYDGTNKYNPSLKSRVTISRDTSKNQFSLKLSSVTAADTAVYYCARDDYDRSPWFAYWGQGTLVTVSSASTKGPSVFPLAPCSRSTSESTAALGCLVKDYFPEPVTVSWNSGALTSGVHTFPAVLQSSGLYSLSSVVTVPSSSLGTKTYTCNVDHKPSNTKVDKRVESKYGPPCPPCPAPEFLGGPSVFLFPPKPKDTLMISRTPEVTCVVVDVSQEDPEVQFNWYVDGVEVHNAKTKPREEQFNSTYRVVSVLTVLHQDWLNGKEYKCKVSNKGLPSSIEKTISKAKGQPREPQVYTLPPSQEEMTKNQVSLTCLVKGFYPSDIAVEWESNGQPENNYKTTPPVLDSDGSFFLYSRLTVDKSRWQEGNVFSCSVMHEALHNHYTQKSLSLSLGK
VL: B4 VL
notes: also called pZRCIII Hyg P15LC-P15HC; copies: 2 + 2

Tests used:
[1] = target: T1, native human purified properdin (Quidel; Cat No: A412) (human, UniProt P27918 28-469); assay: SPR, purified hybridoma antibody on human properdin
T1 construct: mature; Native purified commercial protein; In the haemolysis assays the properdin is the one present in normal human serum; also called human properdin; factor P

[2] = target: T1, native human purified properdin …; assay: SPR (ProteOn XPR36), human properdin amine-coupled on GLC chip, mAb injected, 25 C, PBS pH 7.4
Method: The kinetic rate constants for the binding of anti properdin candidates to native human purified properdin (Quidel; Cat No: A412) were determined by Surface plasmon resonance-based measurement using the ProteOn XPR36 (Bio-Rad). All binding measurements were performed in PBS (pH 7.4, 0.005% Surfactant P20) at 25° C. To measure the binding rate constants of properdin to the mAbs, human properdin was immobilized onto a GLC sensor chip using amine coupling chemistry. […] The data, in the form of sensograms were analysed using data-fitting programs integrated in the ProteOn system. Binding affinities in terms of KD value are provided for tested antibodies in table 7.

[3] = target: T2, recombinant human neonatal Fc receptor (rhFcRn), Sino Biologics (human, UniProt P55899 24-297; P61769 21-119); assay: SPR (ProteOn XPR36), rhFcRn immobilized on GLC chip, antibody injected, PBS pH 6.0, 25 C
T2 construct: Bought protein
Method: The kinetic constants for the binding of antibodies to recombinant human neonatal Fc receptor (hFcRn) were determined by Surface plasmon resonance-based measurement using the ProteOn XPR36 (Bio-Rad). Recombinant rhFcRn receptor (Sino Biologics) was immobilized on a GLC chip following manufacturer's instruction. […] Reactions were carried in PBS (pH 6.0, 0.005% Surfactant P20) at 25° C. After each sample run, the chip surface was regenerated using PBS, pH 7.4. The data, in the form of sensograms, was analysed using the data-fitting programs in the ProteOn system.

T1 sequence (P27918 28-469): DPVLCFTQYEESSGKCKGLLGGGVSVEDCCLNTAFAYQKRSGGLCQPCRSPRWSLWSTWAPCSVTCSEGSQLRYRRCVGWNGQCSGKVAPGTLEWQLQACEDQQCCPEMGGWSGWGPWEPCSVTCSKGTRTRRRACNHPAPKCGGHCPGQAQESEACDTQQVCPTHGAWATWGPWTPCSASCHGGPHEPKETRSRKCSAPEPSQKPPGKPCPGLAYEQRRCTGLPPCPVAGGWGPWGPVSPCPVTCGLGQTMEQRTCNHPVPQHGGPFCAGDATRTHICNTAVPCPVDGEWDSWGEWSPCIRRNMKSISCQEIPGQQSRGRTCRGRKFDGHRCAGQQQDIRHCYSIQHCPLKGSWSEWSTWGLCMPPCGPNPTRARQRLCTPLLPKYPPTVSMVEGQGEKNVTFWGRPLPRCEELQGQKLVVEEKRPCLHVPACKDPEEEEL
T2 sequence (P55899 24-297 limits assumed, chain 1 of 2): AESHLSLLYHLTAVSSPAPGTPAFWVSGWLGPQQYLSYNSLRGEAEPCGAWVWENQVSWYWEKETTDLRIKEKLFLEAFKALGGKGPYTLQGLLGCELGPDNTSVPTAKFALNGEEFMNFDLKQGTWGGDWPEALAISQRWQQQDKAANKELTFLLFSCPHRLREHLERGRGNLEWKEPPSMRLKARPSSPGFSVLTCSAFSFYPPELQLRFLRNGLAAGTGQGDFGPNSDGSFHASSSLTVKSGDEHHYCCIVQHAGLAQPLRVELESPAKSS
T2 sequence (P61769 21-119 limits assumed, chain 2 of 2): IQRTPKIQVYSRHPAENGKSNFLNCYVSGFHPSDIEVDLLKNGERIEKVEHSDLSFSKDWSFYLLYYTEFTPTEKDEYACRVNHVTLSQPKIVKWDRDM

| Binder | Kd [1] [nM] | koff [1] [s⁻¹] | kon [1] [M⁻¹ s⁻¹] | Kd [2] [nM] | koff [2] [s⁻¹] | kon [2] [M⁻¹ s⁻¹] | Kd [3] [nM] | koff [3] [s⁻¹] | kon [3] [M⁻¹ s⁻¹] |
| --- | --- | --- | --- | --- | --- | --- | --- | --- | --- |
| B1 | 0.731 | 0.000509 | 696000 | – | – | – | – | – | – |
| B2 | – | – | – | 2.07 | 0.000867 | 420000 | – | – | – |
| B3 | – | – | – | 2.81 | 0.00151 | 540000 | – | – | – |
| B4 | – | – | – | 0.162 | 0.000128 | 792000 | 66 | 0.0329 | 502000 |
| B5 | – | – | – | 0.154 | 0.000142 | 925000 | 554 | 0.125 | 227000 |

— patent US20230054202A1 (ZYDUS LIFESCIENCES, published 2023)
